Results: patent US20160060347A1 (MorphoSys, published 2016)
Changes are numbered by the printed parent chain. Where no end group is shown, it is not given here.

B1: CX2-Mab #1 (Fab format) (Fab, V domains shown)
VH: QVQLVQSGAEVKKPGSSVKVSCKASGGTFSSYAISWVRQAPGQGLEWMGGIIPIVGEAKYAQKFQGRVTITADESTSTAYMELSSLRSEDTAVYYCARDSSGYDGYYAFAYWGQGTQVTVSS
VL: DIVLTQPPSVSGAPGQRGTISCSGSSSNIGSSSVNWYQQLPGTAPKLLIYRNNQRPSGVPDRFSGSKSGTSASLAITGLQAEDEADYYCGATDFSANQVVFGGGTKLTVLG
B2: CX2-Mab #1.5 (antibody, IgG1, V domains shown)
VH: B1 VH
VL: B1 VL with G90A, A91S, F94S, S95Q, A96W, N97R, V99I
B3: CX2-Mab #4 (Fab format) (Fab, V domains shown)
VH: EVQLLESGGGLVQPGGSLRLSCAASGFTFSSNGMSWVRQAPGKGLEWVSAISSSGSKTYYADSVKGRFTISRDNSKNTLYLQMNSLRAEDTAVYYCARGYGFDVWGQGTLVTVSS
VL: DIVLTQPPSVSGAPGQRVTISCSGSSSNIGVNIVNWYQQLPGTAPKLLIYSTSNRPSGVPDRFSGSKSGTSASLAITGLQAEDEADYYCATRDGISKSVVFGGGTKLTVLG
B4: CX2-Mab #5 (Fab format) (Fab, V domains shown)
VH: EVQLLESGGGLVQPGGSLRLSCAASGFTFNSNAMSWVRQAPGKGLEWVSFISYSGSHTYYADSVKGRFTISRDNSKNTLYLQMNSLRAEDTAVYYCARYTRFLSRPAFDPWGQGTLVTVSS
VL: DIVLTQPPSVSGAPGQRVTISCTGSSSNIGAGYDVHWYQQLPGTAPKLLIYYNSKRPSGVPDRFSGSKSGTSASLAITGLQAEDEADYYCGAYDRKMNSYVFGGGTKLTVLG
B5: CX2-Mab #2 (Fab format) (Fab, V domains shown)
VH: QVQLVQSGAEVKKPGASVKVSCKASGYTFSRYAMHWVRQAPGQGLEWMGVINPYNGNTRYAQKFQGRVTMTRDTSISTAYMELSRLRSEDTAVYYCARGSHIQAGAFDYWGQGTLVTVSS
VL: DIQMTQSPSSLSASVGDRVTITCRASQGINNRLNWYQQKPGKAPKLLIYDGSSLQSGVPSRFSGSGSGTDFTLTISSLQPEDFATYYCQQYIHFPVTFGQGTKVEIKR
B6: CX2-Mab #3 (Fab format) (Fab, V domains shown)
VH: EVQLLESGGGLVQPGGSLRLSCAASGFTFSSYWMSWVRQAPGKGLEWVSVISYSGSETFYADSVKGRFTISRDNSKNTLYLQMNSLRAEDTAVYYCARGRVGYAFDYWGQGTLVTVSS
VL: DIVLTQPPSVSGAPGQRVTISCSGSSSNIGVNYVNWYQQLPGTAPKLLIYSNNQRPSGVPDRFSGSKSGTSASLAITGLQAEDEADYYCQSRASGFYSVVFGGGTKLTVLG
B7: CX2-Mab #3.1 (antibody, IgG1, V domains shown)
VH: B6 VH with E1Q
VL: B6 VL with S91T, S94V, G95H, Y97A, S98R
B8: CX2-Mab #6 (Fab format) (Fab, V domains shown)
VH: EVQLLESGGGLVQPGGSLRLSCAASGFTFSSYTMSWVRQAPGKGLEWVSAIHSSGSSTYYADSVKGRFTISRDNSKNTLYLQMNSLRAEDTAVYYCARVPAYYGFDHWGQGTLVTVSS
VL: DIELTQPPSVSVSPGQTASITCSGDSLGAFYVHWYQQKPGQAPVLVIYRTNNRPSGIPERFSGSNSGNTATLTISGTQAEDEADYYCASYASRNRVFGGGTKLTVLG

Tests used:
human CXCR2 [1] = biological target: T1, human CXCR2 (human, UniProt P25025 1-360); assay: FACS, CXCR2 CHO Flp-In cells, Fab
T1 construct: Expressed on Flp-In CHO cells (FACS, Fab-ZAP, ADCC, CDC) or on bought PathHunter CHO cells (beta-arrestin assay); the construct in the PathHunter cells is not described; also called chemokine receptor CXCR2; CXCR2 CHO Flp-In cells
T1 sequence: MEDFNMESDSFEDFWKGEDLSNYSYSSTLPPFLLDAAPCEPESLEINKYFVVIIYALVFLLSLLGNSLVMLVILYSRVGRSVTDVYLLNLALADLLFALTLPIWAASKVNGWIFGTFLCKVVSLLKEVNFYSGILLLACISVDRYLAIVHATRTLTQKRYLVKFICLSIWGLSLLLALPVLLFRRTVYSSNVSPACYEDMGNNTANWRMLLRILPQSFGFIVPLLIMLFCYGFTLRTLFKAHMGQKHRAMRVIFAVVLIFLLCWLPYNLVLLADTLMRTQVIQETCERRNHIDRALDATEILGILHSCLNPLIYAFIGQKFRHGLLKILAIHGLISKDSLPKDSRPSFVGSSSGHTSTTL
Method: (§1) Human CXCR2-expressing Flp-In™ CHO cells were harvested at ˜80% confluence washed once with PBS (Gibco, Cat #14190-094) and detached using Versene (Invitrogen, Cat #15040-033). Subsequently, cells were counted and centrifuged at 250×g for 5 min at 4° C. Afterwards, cells were diluted in Superblock (Thermo Fisher Perbio Science, Cat #37515) to a cell concentration of 2E+05-1E+06/mL and 100 μL/well were transferred to 96-well microtiter plate (Nunc, Cat#163320). Cells were once centrifuged, supernatant discarded and antibodies added at 1 μg/mL (unless stated otherwise), incubated for 1 h at 4° C. and washed twice with FACS buffer (PBS/3% FCS/0.02% NaN3). Binding of anti-CXCR2 antibodies was detected by incubation of Phycoerythrin-conjugated anti-human IgG (Dianova, Cat #109-116-097) for 1 h at 4° C. Samples were subsequently measured using FACS Array (Becton Dickinson).
(§2) The Fabs were further tested including affinity determination via BiaCore, EC₅₀ determination in ELISA and FACS, as well as the evaluation of cellular cytotoxicity via secondary immunotoxin (Saporin) upon antibody internalization (Fab-ZAP). Respective experimental settings as outlined in Example 3 were used.

[2] = biological target: T2, hu_CXCR2_N-term (1-17)-Trf (human, coupled to carrier protein human transferrin; C-terminal cysteine introduced to enable coupling); assay: ELISA, coated peptide-TRF, Fab
T2 construct: Synthetic linear peptide chemically coupled to the carrier; also called CXCR2_aa1-17_TRF; N-terminal peptide aa1-17, Transferrin-coupled
T2 sequence (P02787 20-698 limits assumed): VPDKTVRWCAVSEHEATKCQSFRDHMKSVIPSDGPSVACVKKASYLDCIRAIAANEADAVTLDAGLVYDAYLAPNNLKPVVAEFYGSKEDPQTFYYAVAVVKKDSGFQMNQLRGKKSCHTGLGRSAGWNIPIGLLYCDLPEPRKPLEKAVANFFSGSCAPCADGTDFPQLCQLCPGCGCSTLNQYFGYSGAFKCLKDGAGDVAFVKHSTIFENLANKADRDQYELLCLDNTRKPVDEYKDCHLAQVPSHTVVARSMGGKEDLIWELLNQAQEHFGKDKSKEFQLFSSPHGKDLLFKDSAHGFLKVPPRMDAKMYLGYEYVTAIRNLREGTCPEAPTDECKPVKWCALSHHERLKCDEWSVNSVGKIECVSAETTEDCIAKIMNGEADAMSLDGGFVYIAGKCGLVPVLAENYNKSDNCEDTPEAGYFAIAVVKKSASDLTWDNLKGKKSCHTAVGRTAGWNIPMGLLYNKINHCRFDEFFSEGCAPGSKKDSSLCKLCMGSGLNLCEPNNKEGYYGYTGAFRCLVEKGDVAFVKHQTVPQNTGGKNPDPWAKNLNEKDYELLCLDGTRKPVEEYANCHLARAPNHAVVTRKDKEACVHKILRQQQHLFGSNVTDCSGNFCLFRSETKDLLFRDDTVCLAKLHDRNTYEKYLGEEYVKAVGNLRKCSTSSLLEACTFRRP
Method: (§3) 384-well Maxisorp plates (Nunc; Cat. #460518) were coated with respective CXCR2 and control peptides coupled either to BSA or Transferrin (TRF) at 1-5 μg/mL and incubated o/n at 4° C. […] After three washing steps, antibodies were added at 5-10 μg/mL and titrated in some experiments. Antibodies were incubated 1 h at room temperature and plates were subsequently washed. Binding of anti-CXCR2 antibodies was detected by using alkaline phosphatase-conjugated anti-human IgG, (Dianova, Cat #109-055-097). AttoPhos fluorescence substrate (Roche, Cat #1484281) was added according to instructions of the manufacturer and fluorescence was measured (excitation at 430 nm, emission at 535 nm) using a microplate reader.
as §2

[3] = biological target: T3, hu_CXCR2_N-term (1-17)-BSA (human; bovine, coupled to carrier protein BSA; C-terminal cysteine introduced to enable coupling); assay: SPR (Biacore), peptide-BSA immobilized, Fab analyte, steady-state fit
T3 construct: Synthetic linear peptide chemically coupled to the carrier; also called CXCR2_aa1-17_BSA; CXCR2 aa1-17 BSA
T3 sequence (P02769 25-607 limits assumed): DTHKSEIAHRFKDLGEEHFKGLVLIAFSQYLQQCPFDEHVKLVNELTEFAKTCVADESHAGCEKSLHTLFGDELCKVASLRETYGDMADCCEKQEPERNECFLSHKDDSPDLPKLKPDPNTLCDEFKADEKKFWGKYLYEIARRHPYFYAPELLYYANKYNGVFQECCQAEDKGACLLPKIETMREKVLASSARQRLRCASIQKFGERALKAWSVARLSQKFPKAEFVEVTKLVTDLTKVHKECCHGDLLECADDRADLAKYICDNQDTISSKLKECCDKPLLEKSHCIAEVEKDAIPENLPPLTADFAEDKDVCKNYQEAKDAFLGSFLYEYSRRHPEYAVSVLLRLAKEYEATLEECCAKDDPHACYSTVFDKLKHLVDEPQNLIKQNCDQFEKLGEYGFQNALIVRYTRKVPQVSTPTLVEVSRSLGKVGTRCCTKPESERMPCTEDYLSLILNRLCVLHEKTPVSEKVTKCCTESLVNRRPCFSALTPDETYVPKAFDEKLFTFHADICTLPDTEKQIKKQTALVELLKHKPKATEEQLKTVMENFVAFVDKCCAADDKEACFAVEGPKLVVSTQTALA
Method: (§4) Affinities (KD values) were determined using SPR (Biacore T200, GE Healthcare) using the following setup: The antigens (hu_CXCR2_N-term (1-17)-BSA, or hu_CXCR2_N-term (1-17)-Trf, respectively) were covalently coupled to a CM5 sensor chip using NHS/EDC chemistry. Antigens were diluted in 10 mM Acetate pH4.5 to a concentration of approx. 100 μg/mL. The final immobilization level was approx. 400 RU for the BSA-coupled peptide and 200 RU for the TRF-coupled peptide. HBS-EP pH7 was used as running buffer throughout the experiment at a flow rate of 30 μL/min. Fab fragments were used as samples (monomer portion at least 90% as determined by HP-SEC, Superdex 75 PC3.2/30 (GE Healthcare). Of each sample, a 2n serial dilution row from 31.25-1000 nM was prepared (6 concentrations) and injected, followed by a blank injection, which was later used for double referencing. Association of Fab samples was recorded for 240 s, and dissociation was monitored for 300 s. At the end of each cycle bound (Fab−) sample was removed from the sensor with one 30 s injection of MgCl2 (3M).
(§5) Most of the recorded binding curves deviated from the expected bimolecular binding model (1:1), but the sensorgrams seemed to reach equilibrium towards the late association phase. Therefore, the binding data (report point late association) was fitted to a steady state model. The Req vs. concentration plots/fits followed the assumed one-binding-site model, and the resulting KD were reported. EC50 values determined by ELISA were in the single digit nanomolar range on N-terminal CXCR2 peptides. […] Respective results of selected 6 Fabs are summarized in Table 1 (data of one representative experiments are shown).

[4] = biological target: T2, hu_CXCR2_N-term (1-17)-Trf; assay: SPR (Biacore), peptide-TRF immobilized, Fab analyte, steady-state fit
Method: as §4, §5

[5] = biological target: T4, peptide derived of extracellular domain three (human, coupled to a carrier protein (BSA or transferrin, not stated which)); assay: ELISA, Fab
T4 construct: also called ECL3 peptide
T4 peptide: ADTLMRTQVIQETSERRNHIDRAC
Method: as §3, §2

[6] = biological target: T3, hu_CXCR2_N-term (1-17)-BSA; assay: ELISA, coated peptide-BSA, Fab
Method: as §3, §2

[7] = biological target: T5, N-Terminal Peptide aa1-17 (Transferrin- or BSA-Coupled) (human, also: coupled to carrier protein (BSA or transferrin), site not given here); assay: initial screening, Fab; carrier of the peptide not stated
T5 peptide: MEDFNMESDSFEDFWKGC

[8] = biological target: T6, ECL3 peptide aa273-295, BSA-coupled (human; bovine, coupled to carrier protein BSA; C-terminal cysteine introduced to enable coupling); assay: ELISA, coated peptide-BSA, IgG1
T6 construct: also called CXCR2 aa273-295 BSA; peptides representing the extracellular domain 3
T6 sequence (P02769 25-607 limits assumed): as the sequence (P02769 25-607 limits assumed) above
Method: as §3

[9] = biological target: T3, hu_CXCR2_N-term (1-17)-BSA; assay: ELISA, coated peptide-BSA, IgG1
Method: as §3

[10] = biological target: T7, N-terminal peptide aa1-48, BSA-coupled (human; bovine, coupled to carrier protein BSA; C-terminal cysteine introduced to enable coupling); assay: ELISA, coated peptide-BSA, IgG1
T7 construct: also called CXCR2 aa1-48 BSA
T7 sequence (P02769 25-607 limits assumed): as the sequence (P02769 25-607 limits assumed) above
Method: as §3

human CXCR2 [11] = biological target: T1, human CXCR2; assay: FACS, CXCR2 CHO Flp-In cells, IgG1
Method: as §1

| Binder | EC50 (human CXCR2 [1]) [nM] | EC50 [2] [nM] | Kd [3] [nM] | Kd [4] [nM] | binding result [5] | EC50 [6] [nM] | signal over background [7] [fold] | binding result [8] | binding result [9] | binding result [10] | binding result (human CXCR2 [11]) |
| --- | --- | --- | --- | --- | --- | --- | --- | --- | --- | --- | --- |
| B1 | 365 | 1 | 534 | 269 | no binding | 6.1 | ≥ 5 | – | – | – | – |
| B2 | – | – | – | – | – | – | – | binds | binds | binds | binds |
| B3 | 136 | 0.4 | 143 | 101 | no binding | 0.8 | ≥ 5 | – | – | – | – |
| B4 | > 6000 | 0.5 | 146 | 149 | no binding | 0.6 | ≥ 5 | – | – | – | – |
| B5 | > 6000 | 1.3 | 221 | 210 | no binding | 3.6 | ≥ 5 | – | – | – | – |
| B6 | 105 | 2 | 393 | 317 | no binding | 4.7 | ≥ 5 | – | – | – | – |
| B7 | – | – | – | – | – | – | – | binds | binds | binds | binds |
| B8 | 195 | 0.5 | 353 | 251 | no binding | 1.3 | ≥ 5 | – | – | – | – |
